Residue numbers refer to the chain shown, from its start.
T1: IL-18 receptor (IL-18Rαβ) on cells (UniProt Q13478 19-541; O95256 20-599, limits assumed)
T1 sequence (looked up) 1: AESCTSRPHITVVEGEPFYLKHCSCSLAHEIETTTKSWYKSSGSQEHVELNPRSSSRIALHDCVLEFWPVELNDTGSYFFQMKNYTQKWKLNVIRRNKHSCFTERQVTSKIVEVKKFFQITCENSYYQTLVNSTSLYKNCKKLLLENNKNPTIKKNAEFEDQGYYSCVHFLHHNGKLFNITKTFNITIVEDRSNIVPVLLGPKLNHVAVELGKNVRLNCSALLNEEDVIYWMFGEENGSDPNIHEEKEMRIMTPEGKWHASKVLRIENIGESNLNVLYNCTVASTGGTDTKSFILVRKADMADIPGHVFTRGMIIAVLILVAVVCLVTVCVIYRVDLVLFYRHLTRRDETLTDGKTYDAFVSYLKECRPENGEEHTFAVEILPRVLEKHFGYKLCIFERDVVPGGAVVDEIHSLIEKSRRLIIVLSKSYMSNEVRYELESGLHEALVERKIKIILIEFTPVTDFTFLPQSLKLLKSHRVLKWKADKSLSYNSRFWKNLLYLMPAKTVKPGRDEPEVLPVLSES
T1 sequence (looked up) 2: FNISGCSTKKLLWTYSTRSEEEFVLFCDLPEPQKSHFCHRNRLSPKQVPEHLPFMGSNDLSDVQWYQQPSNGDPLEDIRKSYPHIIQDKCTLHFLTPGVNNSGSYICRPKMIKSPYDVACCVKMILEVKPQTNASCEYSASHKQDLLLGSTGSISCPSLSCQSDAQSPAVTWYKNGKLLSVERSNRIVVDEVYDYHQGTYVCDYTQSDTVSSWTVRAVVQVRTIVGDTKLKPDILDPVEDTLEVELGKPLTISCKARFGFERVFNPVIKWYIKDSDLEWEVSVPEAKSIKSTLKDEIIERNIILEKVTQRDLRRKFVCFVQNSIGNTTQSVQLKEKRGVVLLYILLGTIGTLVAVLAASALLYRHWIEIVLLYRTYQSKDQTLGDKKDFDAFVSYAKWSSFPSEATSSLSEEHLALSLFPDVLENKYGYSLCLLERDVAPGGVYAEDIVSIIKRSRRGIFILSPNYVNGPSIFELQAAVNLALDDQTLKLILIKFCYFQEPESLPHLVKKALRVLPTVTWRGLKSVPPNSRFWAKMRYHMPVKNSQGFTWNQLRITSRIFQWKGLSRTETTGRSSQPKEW

B1: C324 + MMP9 (ligand)
chain: YFGKLKSKLSIIRNLNDQVLFIDQGNRPLFEDMTDSDARDNAPRTIFIISMYADSQPRGMAVAISVKCEKISTLSAENKIISFKEMNPPDNIKDTKSDIIFFQRSVPGHDNKMQFESSSYEGYFLAAEKERDLFKLILKKEDELGDRSIMFTVQNED
B2: C323 (ligand)
chain: MAAEPVEDNSINFVAMKFIDNTLYFIAEDDENLESDRGRRVANLVGGSGYFGKLKSKLSIIRNLNDQVLFIDQGNRPLFEDMTDSDARDNAPRTIFIISMYADSQPRGMAVAISVKCEKISTLSAENKIISFKEMNPPDNIKDTKSDIIFFQRSVPGHDNKMQFESSSYEGYFLAAEKERDLFKLILKKEDELGDRSIMFTVQNED
B3: C325 (ligand)
chain: B2 chain with V41P, A42L, N43G, V45A
B4: C325 + MMP9 (ligand)
chain: LAGGSGYFGKLKSKLSIIRNLNDQVLFIDQGNRPLFEDMTDSDARDNAPRTIFIISMYADSQPRGMAVAISVKCEKISTLSAENKIISFKEMNPPDNIKDTKSDIIFFQRSVPGHDNKMQFESSSYEGYFLAAEKERDLFKLILKKEDELGDRSIMFTVQNED
B5: C319 (ligand)
chain: MAAEPVEDNSINFVAMKFIDNTLYFIAEDDENLESDRGRRVANYFGKLKSKLSIIRNLNDQVLFIDQGNRPLFEDMTDSDARDNAPRTIFIISMYADSQPRGMAVAISVKCEKISTLSAENKIISFKEMNPPDNIKDTKSDIIFFQRSVPGHDNKMQFESSSYEGYFLAAEKERDLFKLILKKEDELGDRSIMFTVQNED
B6: C321 (ligand)
chain: B5 chain with V41P, A42L, N43G
B7: C326 (ligand)
chain: MAAEPVEDNSINFVAMKFIDNTLYFIAEDDENLESDRGRRVANPLGLAGSGYFGKLKSKLSIIRNLNDQVLFIDQGNRPLFEDMTDSDARDNAPRTIFIISMYADSQPRGMAVAISVKCEKISTLSAENKIISFKEMNPPDNIKDTKSDIIFFQRSVPGHDNKMQFESSSYEGYFLAAEKERDLFKLILKKEDELGDRSIMFTVQNED
B8: C317 (ligand)
chain: MAAEPVEDNSINFVAMKFIDNTLYFIAEDDENLESDRGRRVANLVGYFGKLKSKLSIIRNLNDQVLFIDQGNRPLFEDMTDSDARDNAPRTIFIISMYADSQPRGMAVAISVKCEKISTLSAENKIISFKEMNPPDNIKDTKSDIIFFQRSVPGHDNKMQFESSSYEGYFLAAEKERDLFKLILKKEDELGDRSIMFTVQNED
B9: C324 (ligand)
chain: B8 chain with L44P, V45L
B10: C318 (ligand)
chain: MAAEPVEDNSINFVAMKFIDNTLYFIAEDDENLESDSGRVANYFGKLKSKLSIIRNLNDQVLFIDQGNRPLFEDMTDSDARDNAPRTIFIISMYADSQPRGMAVAISVKCEKISTLSAENKIISFKEMNPPDNIKDTKSDIIFFQRSVPGHDNKMQFESSSYEGYFLAAEKERDLFKLILKKEDELGDRSIMFTVQNED
B11: C318 + Matriptase (ligand)
chain: B10 chain
B12: C320 (ligand)
chain: B10 chain with V40P, A41L, N42G
B13: C322 (ligand)
chain: MAAEPVEDNSINFVAMKFIDNTLYFIAEDDENLESDSGRVANLVGGSGYFGKLKSKLSIIRNLNDQVLFIDQGNRPLFEDMTDSDARDNAPRTIFIISMYADSQPRGMAVAISVKCEKISTLSAENKIISFKEMNPPDNIKDTKSDIIFFQRSVPGHDNKMQFESSSYEGYFLAAEKERDLFKLILKKEDELGDRSIMFTVQNED
B14: C316 (ligand)
chain: MAAEPVEDNSINFVAMKFIDNTLYFIAEDDENLESDSGRVANLVGYFGKLKSKLSIIRNLNDQVLFIDQGNRPLFEDMTDSDARDNAPRTIFIISMYADSQPRGMAVAISVKCEKISTLSAENKIISFKEMNPPDNIKDTKSDIIFFQRSVPGHDNKMQFESSSYEGYFLAAEKERDLFKLILKKEDELGDRSIMFTVQNED
B15: C316 + Matriptase (ligand)
chain: B14 chain
B16: C159 (ligand)
chain: B1 chain with K6E, A63T, H109A
B17: C165 (ligand)
chain: B1 chain with K6E, A53K, S55R, A63T
B18: C160 (ligand)
chain: B1 chain with K6E, A63T, D110A
B19: C163 (ligand)
chain: B1 chain with K6E, A53K, A63T, Q103K
B20: C166 (ligand)
chain: B1 chain with K6E, A53K, S55T, A63T
B21: C168 (ligand)
chain: B1 chain with K6E, A53K, A63T, S105K
B22: C161 (ligand)
chain: B1 chain with K6E, K8R, A53K, A63T, Q103E
B23: C162 (ligand)
chain: B1 chain with K6E, K8E, A53K, A63T, Q103R
B24: C167 (ligand)
chain: B1 chain with K6E, A53K, A63T, S105I
B25: C164 (ligand)
chain: B1 chain with K6E, A53K, S55H, A63T

What follows are binders tested against T1, IL-18 receptor (IL-18Rαβ) on cells (assay: cell-based or functional assay).

IFNγ release NK-92 assay EC50 | Binder
0.0022 nM | B1
102 nM | B2
201 nM | B3
0.0467 nM | B4
21.3 nM | B5
112 nM | B6
217 nM | B7
526 nM | B8
51.7 nM | B9
21.9 nM | B10
22.1 nM | B11
158 nM | B12
205 nM | B13
532 nM | B14
366 nM | B15

Target: T1, IL-18 receptor (IL-18Rαβ) on cells
Test: cell-based or functional assay
Remark: another data set of the same source

HEK-Blue IL-18R reporter EC50 | Binder
0.0195 nM | B16
0.00191 nM | B17
0.00202 nM | B18
0.0015 nM | B19
0.00473 nM | B20
0.00773 nM | B21
0.00201 nM | B22
0.0023 nM | B23
0.00537 nM | B24
0.00314 nM | B25

Target: T1, IL-18 receptor (IL-18Rαβ) on cells
Test: cell-based or functional assay
Remark: another data set of the same source

EC50 (IFNγ stimulation, NK92) | Binder
0.123 nM | B16
0.176 nM | B17
0.028 nM | B18
0.093 nM | B19
0.098 nM | B20
0.098 nM | B21
0.057 nM | B22
0.061 nM | B23
0.103 nM | B24
0.414 nM | B25

— patent publication US20250197467A1 (BRIGHT PEAK THERAPEUTICS, published 2025)
